According to publication doi:10.1101/2022.05.11.22274678 (2022):

Experiments:
[1] = target: T1, transketolase (TKT) from Clostridium leptum, TKT peptide 8 peptide on HLA-DQA1*05:01 / HLA-DQB1*03:02 (human); assay: activation reporter or marker
T1 peptide: GHSVEALYCILADRG

[2] = target: T2, insulin B chain peptide on HLA-DQA1*05:01 / HLA-DQB1*03:02 (human); assay: activation reporter or marker
T2 peptide: SHLVEALYLVCGERG

binding result [1]: recognises | binding result [2]: recognises
B1: GSE.166H9 (TCR)
alpha TRAV3 TRAJ21 CDR3: CAVMYNFNKFYF
beta TRBV12-3 TRBJ2-5 CDR3: CASSLGGRETQYF
